Columns and labels:
[1] = molecular target: human CD98 as used in ELISA, BIACORE and Octet assays (human) (UniProt P08195); test: Biacore and Octet
[2] = molecular target: cynomolgus monkey CD98 as used in SPR, Octet and ELISA (cynomolgus monkey) (UniProt I7GH21); test: Biacore and Octet

UniProt P08195, sequence (P08195 206-630 limits assumed, form in doubt): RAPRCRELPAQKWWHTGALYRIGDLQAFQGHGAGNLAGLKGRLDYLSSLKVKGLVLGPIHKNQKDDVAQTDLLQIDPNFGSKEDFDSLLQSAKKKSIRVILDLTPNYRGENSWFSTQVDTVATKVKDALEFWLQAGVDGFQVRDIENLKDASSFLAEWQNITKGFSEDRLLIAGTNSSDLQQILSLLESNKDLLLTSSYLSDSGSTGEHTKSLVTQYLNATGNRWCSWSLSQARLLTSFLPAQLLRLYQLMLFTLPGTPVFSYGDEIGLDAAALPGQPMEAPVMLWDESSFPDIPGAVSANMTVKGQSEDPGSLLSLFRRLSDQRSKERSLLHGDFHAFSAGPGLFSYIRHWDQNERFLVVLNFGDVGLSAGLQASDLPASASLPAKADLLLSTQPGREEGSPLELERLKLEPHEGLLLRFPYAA

## humanized anti-CD98 monoclonal antibody IGN523
[1]
  Kd: 2 to 6 nM
[2]
  Kd: 8 to 14 nM

Source: WO2013078377A1
